Earlier results on one substance are cited in article PMC10178479.

What is called Ki is the dissociation constant of the complex between target and ligand, obtained from inhibition or displacement.

In this series the target is Mint2 (Homo sapiens) (UniProt Q99767).
Chain of UniProt Q99767 (Q99767 whole entry): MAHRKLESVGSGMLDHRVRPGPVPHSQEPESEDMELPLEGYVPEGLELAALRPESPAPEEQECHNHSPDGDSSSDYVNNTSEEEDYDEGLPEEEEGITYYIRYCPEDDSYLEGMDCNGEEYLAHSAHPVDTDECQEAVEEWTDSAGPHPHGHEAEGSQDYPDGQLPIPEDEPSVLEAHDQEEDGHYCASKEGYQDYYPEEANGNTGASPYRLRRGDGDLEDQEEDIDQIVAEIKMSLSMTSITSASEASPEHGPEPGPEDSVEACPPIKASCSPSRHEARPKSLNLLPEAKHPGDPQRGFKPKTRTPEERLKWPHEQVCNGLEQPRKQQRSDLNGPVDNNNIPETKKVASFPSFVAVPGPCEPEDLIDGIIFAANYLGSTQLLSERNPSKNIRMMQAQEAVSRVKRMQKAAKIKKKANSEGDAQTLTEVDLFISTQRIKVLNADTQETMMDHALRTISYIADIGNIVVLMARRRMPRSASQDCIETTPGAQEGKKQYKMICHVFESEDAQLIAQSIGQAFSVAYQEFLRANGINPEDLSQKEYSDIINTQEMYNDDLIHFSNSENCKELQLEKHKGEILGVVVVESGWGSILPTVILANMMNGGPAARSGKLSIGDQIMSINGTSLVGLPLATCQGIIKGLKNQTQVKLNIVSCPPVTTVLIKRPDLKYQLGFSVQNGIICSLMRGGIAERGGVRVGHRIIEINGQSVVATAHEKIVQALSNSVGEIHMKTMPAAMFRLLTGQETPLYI

In the case of APP peptide (APPWT), the Ki was 4 µM.
